According to the supplement of paper PMC12042874:
± gives the uncertainty stated by the source.

Assay: amyloid nucleation score (Sup35N fusion, yeast selection) (log enrichment); library NNK2; higher = more nucleation; inactive = no reads after selection
Procedure, shortened: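 Growth for 7 days at 30°C on medium lacking adenine and uracil followed a 24-hour induction with 100 μM copper sulfate of psi-negative yeast expressing peptides of 20 random codons fused to Sup35N. Input and output plasmid inserts were sequenced with Illumina, and sequences with under 100 input reads were excluded. Nucleation score is the DiMSum log enrichment of output over input reads, centred on the mode score of non-aggregating sequences.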
In the case of IRYPIPWFY, the amyloid nucleation score is reported as “inactive”. For IRYVMHWFISAVILTTPPCG, the amyloid nucleation score was 0.355 ± 0.8. With ISFIDHYVY the amyloid nucleation score was “inactive”. In the case of ISFTVYGPRMVVWLQGIMFG, the amyloid nucleation score is reported as -0.86 ± 0.35. In the case of ISFWYHSKTS, the amyloid nucleation score is reported as 0.318 ± 0.57. Work on ISGVLLWIRRFKHPICEEAW yielded an amyloid nucleation score of 0.371 ± 0.56. Substance ISIFFVMLLMYRMFGYVECA has an amyloid nucleation score of 0.856 ± 0.5. ISLRMKEHVICSLVPFMSQI showed an amyloid nucleation score of 0.664 ± 0.22. ISLSIWQPRNSDGWKQEPAP showed an amyloid nucleation score of 2.41 ± 0.24. For ISLSLFRNGPIRMAKGSAWM, the amyloid nucleation score was 6.081 ± 0.036. Work on ISMTTVDPQMEEFGLRHVGV yielded an amyloid nucleation score of 0.831 ± 0.31. In the case of ISPIVEIGRASTVTLSDISV, the amyloid nucleation score is reported as 4.71 ± 0.054. For ISRGRRYRTPVEILGGHMRH, the amyloid nucleation score was 0.917 ± 0.53. For ISRLWCHRHLCCPGWSMVRQ, the amyloid nucleation score was -0.063 ± 0.74. Substance ISRWTSIVFKRLNGRDKEMK has an amyloid nucleation score of 4.29 ± 0.088. With ISSEWEYHDT the amyloid nucleation score was “inactive”. For ISSLLFVETELHSVFNLWWM, the amyloid nucleation score was -0.277 ± 0.44. ISSNKGFVEVAVSWVPRDVR showed an amyloid nucleation score of 0.744 ± 0.38. In the case of ISVCITILSYVRNECWFRGD, the amyloid nucleation score is reported as -0.432 ± 0.24. For ISVHSQNTYVILELVRPSML, the amyloid nucleation score was 8.388 ± 0.04. Work on ISVRVFNRNT yielded an amyloid nucleation score of 3.15 ± 0.078. Work on ISVVNSGCCCITTHPLRTYR yielded an amyloid nucleation score of 9.867 ± 0.079. ISYSVKPLYFVSRVRTVNLG showed an amyloid nucleation score of 4.13 ± 0.078. In the case of ITCTFFFSVSVLSTSVDSMY, the amyloid nucleation score is reported as 0.674 ± 0.57. Work on ITDVFSMWIF yielded an amyloid nucleation score of -0.73 ± 0.5. For ITHCLTAFSVLWILVYVW, the amyloid nucleation score was “inactive”. Work on ITKAASTWDLLFFVRQVCRT yielded an amyloid nucleation score of 0.353 ± 0.61. For ITKPLVALKNGYMVL, the amyloid nucleation score was -0.177 ± 0.56. With ITLLGKVLSGVVKPSYPLAA the amyloid nucleation score was “inactive”. ITSNSVHIGITNYYRRELDQ showed an amyloid nucleation score of 5.32 ± 0.056. Work on ITWGFNVFMFVVPSWS yielded an amyloid nucleation score of 8.67 ± 0.035. With ITYNIEISMRDF the amyloid nucleation score was 4.32 ± 0.11. IVAGFNSKWLSTDFNRTENR showed an amyloid nucleation score of -0.517 ± 0.78. IVCDWRTP gave an amyloid nucleation score of 0.614 ± 0.41. Work on IVCPFKT yielded an amyloid nucleation score of -1.35 ± 0.78. In the case of IVCSC, the amyloid nucleation score is reported as -0.194 ± 0.45. Substance IVFYFVFRILSYGGSTIPVG has an amyloid nucleation score of -1.15 ± 0.64. Work on IVGTDSQHVLVLQIFCVCLR yielded an amyloid nucleation score of -0.326 ± 1.1. IVHYVFFWMGGILGNHASFP showed an amyloid nucleation score of -1.31 ± 1.1. For IVILDRFSPCSRTNE, the amyloid nucleation score was 0.45 ± 0.8. With IVKFDVRVMCADLIGSHGQW the amyloid nucleation score was 7.02 ± 0.085. In the case of IVKYTGSKIYKFWYDLAGPL, the amyloid nucleation score is reported as -1.06 ± 1.1. Substance IVVFSGVQVRGHCWNVKGAN has an amyloid nucleation score of 7.64 ± 0.069. With IVWLLLSGRF the amyloid nucleation score was 4.54 ± 0.098. With IVWSNMTIQQSTSSVY the amyloid nucleation score was -0.25 ± 0.25. With IVYKGFLREN the amyloid nucleation score was “inactive”. In the case of IWFSWAVCFMITFHSHTHWW, the amyloid nucleation score is reported as 0.598 ± 0.57. For IWRCNPG, the amyloid nucleation score was 1.04 ± 0.68. IYCNNPRWSFLHSLKLEPLG showed an amyloid nucleation score of -0.476 ± 0.28. With IYCVRQSDGQYSSEMAHYII the amyloid nucleation score was 2.64 ± 0.094. With IYFESPPTRWGGYVADNCEY the amyloid nucleation score was -1.36 ± 0.76. In the case of IYGAMCLCP, the amyloid nucleation score is reported as -0.005 ± 0.63. For IYLGVCYFSALGRDFMSKWW, the amyloid nucleation score was 1.77 ± 0.15. IYTLL gave an amyloid nucleation score of -0.228 ± 1.1. Substance IYTRFQLFR has an amyloid nucleation score of 4.5 ± 0.069. In the case of IYYRVWMSFSFRG, the amyloid nucleation score is reported as -0.717 ± 0.37. With KAIFSCDARFVRWNAHNREC the amyloid nucleation score was “inactive”. In the case of KAIYPYLI, the amyloid nucleation score is reported as “inactive”. In the case of KALYYY, the amyloid nucleation score is reported as “inactive”. Work on KARRPRIWDMDLLQLWANLP yielded an amyloid nucleation score of 1.12 ± 0.66. Substance KASLDN has an amyloid nucleation score of 0.018 ± 0.51. In the case of KATDSRYRFFMILMFYMTIY, the amyloid nucleation score is reported as “inactive”. With KAYCVHSPVVCISGRVLDSG the amyloid nucleation score was -1 ± 1.1. Work on KCDYPGFWMPGQSYKDSILD yielded an amyloid nucleation score of -1.61 ± 1.1. KCEYGLSVKYCVGQTGGN showed an amyloid nucleation score of 1.17 ± 0.48. KCFKVRTDLWRSC gave an amyloid nucleation score of 1.38 ± 0.53. With KCIAGMSWCEH the amyloid nucleation score was 0.252 ± 0.2. For KCIIRTNKFFAFHVCKLTVN, the amyloid nucleation score was 0.498 ± 0.3. For KCTTVIYYMCIGLRH, the amyloid nucleation score was 4.98 ± 0.041. KCVRKCYDIYGLLSCCGRLA gave an amyloid nucleation score of 8.844 ± 0.039. KCYSYCLLAL gave an amyloid nucleation score of -0.202 ± 1.1. Work on KDAPKFIYFSQLTTKCITRY yielded an amyloid nucleation score of 4.14 ± 0.044. With KDCISLDSIV the amyloid nucleation score was “inactive”. Work on KDFLANPKGESGQQRTMQCI yielded an amyloid nucleation score of -0.502 ± 0.79. Substance KDGSFSPISL has an amyloid nucleation score of -0.116 ± 0.35. With KDNSTPRIGASDEIDVVLAF the amyloid nucleation score was 0.078 ± 0.77. Substance KDWGFRNTCG has an amyloid nucleation score of -0.184 ± 1.1. With KEAPFCASGLPD the amyloid nucleation score was -0.324 ± 1.1. Substance KFGNSCR has an amyloid nucleation score of -0.428 ± 0.42. Substance KFKVHQMQDVLSWVGYHDGS has an amyloid nucleation score of 4.13 ± 0.044. In the case of KFNPRPCSFKYLRV, the amyloid nucleation score is reported as “inactive”. KFRDVFFPY showed an amyloid nucleation score of -0.76 ± 0.55. In the case of KFRNCVRKDFLSMHHFSVVF, the amyloid nucleation score is reported as -0.666 ± 0.45. KFSTLCRISYITYLFFG gave an amyloid nucleation score of 6.336 ± 0.049. KFTVDFYLTACTGTKIDFMV gave an amyloid nucleation score of 5.981 ± 0.04. In the case of KGFDEVGMMAIGFDSWVGTR, the amyloid nucleation score is reported as 0.242 ± 0.26.
